{"source": "patent US7063845", "about": "(KIRIN BEER, dated 2006)", "binders": {"B1": {"name": "recombinant human anti-CD40 antibody F5-77 (antibody, V domains shown)", "VH": "not shown", "VL": "DIQMTQSPSSVSGSVGDRVTITCRASQGISSWLAWYQQKPGKAPKLLIYAGSSLQSGVPSRFSGSGFGTDFTLTISSLQPEDFATYYCQQASSFPRTFGQGTKVEIK", "notes": "also called F5-77 (K1H1); printed F5-17 in claim 19"}}, "molecular_target": "T1, human CD40 on the cell surface (EL-4 cells transfected with full length human CD40 cDNA); Ramos B cells; human … (human, UniProt P25942 21-277)", "T1 construct": "whole, on cells; Ramos and peripheral B cells carry their own CD40; also called cell surface human CD40", "T1 sequence (P25942 21-277)": "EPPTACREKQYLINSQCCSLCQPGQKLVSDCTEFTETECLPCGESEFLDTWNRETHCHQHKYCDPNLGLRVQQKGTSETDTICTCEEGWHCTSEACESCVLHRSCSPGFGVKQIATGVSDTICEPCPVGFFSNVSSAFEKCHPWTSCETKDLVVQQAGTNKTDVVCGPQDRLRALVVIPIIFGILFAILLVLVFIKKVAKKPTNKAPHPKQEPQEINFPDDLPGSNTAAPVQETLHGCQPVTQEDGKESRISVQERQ", "test": "FACS on EL-4 cells expressing human CD40"}
{"binder": "B1", "values": [{"measurement": "binding result", "result": "binds"}]}
